Results reported in patent US11079398B2, “Method for measurement of peptidic degradation products of a proteolytic cascade in blood samples” (ATTOQUANT DIAGNOSTICS GMBH, priority 2012, dated 2021).

System: renin-angiotensin system (RAS)
Test: RSSE-Fingerprinting: blood incubated at 37° C. with added agents, LC-MS/MS quantification of angiotensin peptides
Assay type: biochemical, human
Conditions: for shift of RSSE-Fingerprint: 5 μg/ml enzyme added prior to incubation
Description: Blood samples were collected and anti-coagulated with standardised heparin tubes (BD). As indicated in FIGS. 3A-3C, plasma separation has been done for the respective samples before the incubation to reach steady state equilibrium.
Following plasma separation by centrifugation at 3000 rcf for 10 minutes at 4° C., […] of plasma was applied onto an activated and equilibrated SEP-PAK™ C18 cartridge. Sample matrix components were removed by washing three times with 1 ml water. Bound analytes were then eluted with 1 ml of methanol. Eluates were evaporated to dryness and reconstituted in 10% acetonitril/90% water supplemented with 0.1% formic acid followed by subjection to LC-MS/MS analysis.
A vacuum manifold has been used for sample processing. • 1. Activation: EtOH abs. • 2. Equilibration: 2×1 ml H2O • 3. Loading: 0.2-1 ml stabilised plasma • 4. Washing: 3×1 ml H2O • 5. Elution: 1 ml MeOH Quantification and Signal Integration
MRM chromatograms were integrated using Analyst 1.5.1 software provided by Applied Biosystems. The threshold for the quantification limit was set at a signal-to-noise ratio of 10. Integration signals not reaching this ratio were set to zero. Analyte signals were related to internal standard signals and concentration was calculated from initially spiked amounts of internal standards.

Molecule	shift of RSSE-Fingerprint	steady state equilibrium Ang 1-10 concentration, addition of ACE compared to ACE2 (5 μg/ml enzyme, FIG. 2B1)
ACE: recombinant RAS enzyme Angiotensin Converting Enzyme, purchased from R&D Systems (protein, UniProt P12821 30-1306, looked up) Angiotensin-converting enzyme: LDPGLQPGNFSADEAGAQLFAQSYNSSAEQVLFQSVAASWAHDTNITAENARRQEEAALLSQEFAEAWGQKAKELYEPIWQNFTDPQLRRIIGAVRTLGSANLPLAKRQQYNALLSNMSRIYSTAKVCLPNKTATCWSLDPDLTNILASSRSYAMLLFAWEGWHNAAGIPLKPLYEDFTALSNEAYKQDGFTDTGAYWRSWYNSPTFEDDLEHLYQQLEPLYLNLHAFVRRALHRRYGDRYINLRGPIPAHLLGDMWAQSWENIYDMVVPFPDKPNLDVTSTMLQQGWNATHMFRVAEEFFTSLELSPMPPEFWEGSMLEKPADGREVVCHASAWDFYNRKDFRIKQCTRVTMDQLSTVHHEMGHIQYYLQYKDLPVSLRRGANPGFHEAIGDVLALSVSTPEHLHKIGLLDRVTNDTESDINYLLKMALEKIAFLPFGYLVDQWRWGVFSGRTPPSRYNFDWWYLRTKYQGICPPVTRNETHFDAGAKFHVPNVTPYIRYFVSFVLQFQFHEALCKEAGYEGPLHQCDIYRSTKAGAKLRKVLQAGSSRPWQEVLKDMVGLDALDAQPLLKYFQPVTQWLQEQNQQNGEVLGWPEYQWHPPLPDNYPEGIDLVTDEAEASKFVEEYDRTSQVVWNEYAEANWNYNTNITTETSKILLQKNMQIANHTLKYGTQARKFDVNQLQNTTIKRIIKKVQDLERAALPAQELEEYNKILLDMETTYSVATVCHPNGSCLQLEPDLTNVMATSRKYEDLLWAWEGWRDKAGRAILQFYPKYVELINQAARLNGYVDAGDSWRSMYETPSLEQDLERLFQELQPLYLNLHAYVRRALHRHYGAQHINLEGPIPAHLLGNMWAQTWSNIYDLVVPFPSAPSMDTTEAMLKQGWTPRRMFKEADDFFTSLGLLPVPPEFWNKSMLEKPTDGREVVCHASAWDFYNGKDFRIKQCTTVNLEDLVVAHHEMGHIQYFMQYKDLPVALREGANPGFHEAIGDVLALSVSTPKHLHSLNLLSSEGGSDEHDINFLMKMALDKIAFIPFSYLVDQWRWRVFDGSITKENYNQEWWSLRLKYQGLCPPVPRTQGDFDPGAKFHIPSSVPYIRYFVSFIIQFQFHEALCQAAGHTGPLHKCDIYQSKEAGQRLATAMKLGFSRPWPEAMQLITGQPNMSASAMLSYFKPLLDWLRTENELHGEKLGWPQYNWTPNSARSEGPLPDSGRVSFLGLDLDAQQARVGQWLLLFLGIALLVATLGLSQRLFSIRHRSLHRHSHGPQFGSEVELRHS	shifted as expected	lower
NEP: recombinant neutral endopeptidase (neprilysin), purchased from R&D Systems (protein, UniProt P08473 2-750, looked up) Neprilysin: GKSESQMDITDINTPKPKKKQRWTPLEISLSVLVLLLTIIAVTMIALYATYDDGICKSSDCIKSAARLIQNMDATTEPCTDFFKYACGGWLKRNVIPETSSRYGNFDILRDELEVVLKDVLQEPKTEDIVAVQKAKALYRSCINESAIDSRGGEPLLKLLPDIYGWPVATENWEQKYGASWTAEKAIAQLNSKYGKKVLINLFVGTDDKNSVNHVIHIDQPRLGLPSRDYYECTGIYKEACTAYVDFMISVARLIRQEERLPIDENQLALEMNKVMELEKEIANATAKPEDRNDPMLLYNKMTLAQIQNNFSLEINGKPFSWLNFTNEIMSTVNISITNEEDVVVYAPEYLTKLKPILTKYSARDLQNLMSWRFIMDLVSSLSRTYKESRNAFRKALYGTTSETATWRRCANYVNGNMENAVGRLYVEAAFAGESKHVVEDLIAQIREVFIQTLDDLTWMDAETKKRAEEKALAIKERIGYPDDIVSNDNKLNNEYLELNYKEDEYFENIIQNLKFSQSKQLKKLREKVDKDEWISGAAVVNAFYSSGRNQIVFPAGILQPPFFSAQQSNSLNYGGIGMVIGHEITHGFDDNGRNFNKDGDLVDWWTQQSASNFKEQSQCMVYQYGNFSWDLAGGQHLNGINTLGENIADNGGLGQAYRAYQNYIKKNGEEKLLPGLDLNHKQLFFLNFAQVWCGTYRPEYAVNSIKTDVHSPGNFRIIGTLQNSAEFSEAFHCRKNSYMNPEKKCRVW	shifted as expected	
APN: recombinant aminopeptidase N, purchased from R&D Systems (protein, UniProt P15144 2-967, looked up) Aminopeptidase N: AKGFYISKSLGILGILLGVAAVCTIIALSVVYSQEKNKNANSSPVASTTPSASATTNPASATTLDQSKAWNRYRLPNTLKPDSYRVTLRPYLTPNDRGLYVFKGSSTVRFTCKEATDVIIIHSKKLNYTLSQGHRVVLRGVGGSQPPDIDKTELVEPTEYLVVHLKGSLVKDSQYEMDSEFEGELADDLAGFYRSEYMEGNVRKVVATTQMQAADARKSFPCFDEPAMKAEFNITLIHPKDLTALSNMLPKGPSTPLPEDPNWNVTEFHTTPKMSTYLLAFIVSEFDYVEKQASNGVLIRIWARPSAIAAGHGDYALNVTGPILNFFAGHYDTPYPLPKSDQIGLPDFNAGAMENWGLVTYRENSLLFDPLSSSSSNKERVVTVIAHELAHQWFGNLVTIEWWNDLWLNEGFASYVEYLGADYAEPTWNLKDLMVLNDVYRVMAVDALASSHPLSTPASEINTPAQISELFDAISYSKGASVLRMLSSFLSEDVFKQGLASYLHTFAYQNTIYLNLWDHLQEAVNNRSIQLPTTVRDIMNRWTLQMGFPVITVDTSTGTLSQEHFLLDPDSNVTRPSEFNYVWIVPITSIRDGRQQQDYWLIDVRAQNDLFSTSGNEWVLLNLNVTGYYRVNYDEENWRKIQTQLQRDHSAIPVINRAQIINDAFNLASAHKVPVTLALNNTLFLIEERQYMPWEAALSSLSYFKLMFDRSEVYGPMKNYLKKQVTPLFIHFRNNTNNWREIPENLMDQYSEVNAISTACSNGVPECEEMVSGLFKQWMENPNNNPIHPNLRSTVYCNAIAQGGEEEWDFAWEQFRNATLVNEADKLRAALACSKELWILNRYLSYTLNPDLIRKQDATSTIISITNNVIGQGLVWDFVQSNWKKLFNDYGGGSFSFSNLIQAVTRRFSTEYELQQLEQFKKDNEETGFGSGTRALEQALEKTKANIKWVKENKEVVLQWFTENSK	shifted as expected	
